{
  "source": "paper PMC10354751",
  "about": "(Bioengineering & Translational Medicine, 2023)",
  "key": {"[1]": {"target": "SpyCatcher-mi3 nanoparticle", "test": "SDS-PAGE of the covalent SpyTag-SpyCatcher conjugate + dynamic light scattering; cPfCSP and SpyCatcher-mi3 mixed and allowed to react overnight at 4°C; conjugate band at ~65 kDa; diameter 48 nm against 34 nm", "conditions": "scale: cPfCSP molecules per SpyCatcher-mi3 nanoparticle"}, "[2]": {"target": "T1, full-length recombinant PfCSP (Plasmodium falciparum, strain of the …, UniProt Q7K740)", "T1 construct": "Plasmodium falciparum circumsporozoite protein; source: E. coli, recombinant, provided by Gennova (Pune, India)", "T1 sequence (Q7K740 19-374)": "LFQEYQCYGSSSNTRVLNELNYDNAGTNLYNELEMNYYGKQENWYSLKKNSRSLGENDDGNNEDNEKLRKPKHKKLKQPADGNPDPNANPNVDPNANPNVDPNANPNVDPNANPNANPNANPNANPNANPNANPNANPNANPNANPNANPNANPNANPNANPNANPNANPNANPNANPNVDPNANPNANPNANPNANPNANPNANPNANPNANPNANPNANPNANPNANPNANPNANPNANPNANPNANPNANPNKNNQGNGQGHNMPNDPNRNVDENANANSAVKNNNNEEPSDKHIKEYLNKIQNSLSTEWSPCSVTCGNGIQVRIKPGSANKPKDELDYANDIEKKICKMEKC", "test": "ELISA; competition: 5 ng/mL mAb 2A10 pre-incubated with 0.5, 5 or 50 μg/mL of T1 or B3 peptide without cysteines, then allowed to bind to plates coated with PfCSP; signal normalised to that without peptide", "conditions": "both partners purified"}, "[3]": {"target": "T2, T1 synthetic peptide (without cysteine residues) (Plasmodium falciparum, synthetic peptide)", "T2 construct": "source: synthetic peptide", "T2 chain": "DPNANPNVDPNANPNV", "test": "ELISA; competition: 5 ng/mL mAb 2A10 pre-incubated with 0.5, 5 or 50 μg/mL of T1 or B3 peptide without cysteines, then allowed to bind to plates coated with PfCSP; signal normalised to that without peptide", "conditions": "both partners purified"}, "[4]": {"target": "T3, B3 synthetic peptide, (NANP)3 (without cysteine residues) (Plasmodium falciparum, synthetic peptide)", "T3 construct": "three NANP repeats of the major repeat region of Plasmodium falciparum circumsporozoite protein; written out from the printed formula (NANP)3; source: synthetic peptide", "T3 chain": "NANPNANPNANP", "test": "ELISA; competition: 5 ng/mL mAb 2A10 pre-incubated with 0.5, 5 or 50 μg/mL of T1 or B3 peptide without cysteines, then allowed to bind to plates coated with PfCSP; signal normalised to that without peptide", "conditions": "both partners purified"}},
  "data": [
    {"molecule": "chimeric PfCSP (cPfCSP) with C-terminal GPGPG spacer, SpyTag and 6x His-tag (from UniProt Q7K740 82-104; Q7K740 311-340; Q7K740 341-397)", "values": [
      {"measurement": "stoichiometry N", "setting": "[1]", "result": 3.2}
    ]},
    {"molecule": "2A10 antibody (antibody, V domains shown, heavy chain gene cloned into the TGEX-HC vector; light chain gene cloned into the TGEX-LC vector; treated as one molecule; also called mAb 2A10; monoclonal antibody 2A10; source: HEK293F, transfected, purified (MabSelect SuRe)) VH: QIQLVQSGPELKKPGETVKISCKASGYTFTNYGINWVKQAPGKGLKWMGWINTITEEPTFAEEFTGRFAFSLETSASTAYLQINNLKNEDTATYFCARGSEFGRLVYWGQGASVTVSS VL: DIQMTQTTSSLSASLGDRVTISCSASQGISNYLNWYQQKPDGTVKLLIFYTSTLYSGVPSRFSGSGSGTDYSLTISNLEPEDIATYYCQQYSRFPYVFGGGTKLEIK", "values": [
      {"measurement": "binding result", "setting": "[2]", "result": "binds"},
      {"measurement": "binding result", "setting": "[3]", "result": "binds"},
      {"measurement": "binding result", "setting": "[4]", "result": "binds"}
    ]}
  ]
}
